In the test the target is spike wt.

Consider one molecule from patent US20250222126A1 (ARIZONA BOARD OF REGENTS ON BEHALF OF ARIZONA STATE …, published 2025).

B1: Tri-pdbody (designed binder)
LCB1 mini-binder coupled to a DNA handle that is hybridised to an arm of a 3-helix-bundle DNA nanostructure: DKEWILQKIYEIMRLLDELGHAEASMRVSDLIYEFMKKGDERLLEEAERLLEEVER
notes: also called 3-Arm; 3arm
As for B1, binding was put at a Kd of 132 pM.
